Measurements published in paper PMC2637360 (Structure (London, England : 1993), 2008).

Target: the molecule itself
Experiment: crystal structure

B1: N141A HincII (enzyme)
chain: MSFIKPIYQDINSILIGQKVKRPKSGTLSGHAAGEPFEKLVYKFLKENLSDLTFKQYEYLNDLFMKNPAIIGHEARYKLFNSPTLLFLLSRGKAATENWSIENLFEEKQNDTADILLVKDQFYELLDVKRRNISKSAQAPAIISAYKLAQTCAKMIDNKEFDLFDINYLEVDSELNGEDLVCVSTSFAELFKSEPSELYINWAAAMQIQFHVRDLDQGFNGTREEWAKSYLKHFVTQAEQRAISMIDKFVKPFKKYIL
In the case of B1, the “stoichiometry N” value is reported as 2.
